Where no end group is shown, it is not given here.
Experiments:
[1] = tested on: adult zebrafish brain (telencephalon); details: for number of TUNEL-positive (apoptotic) cells: CVMI 200 μM, 1 dpi, per telencephalic hemisphere per section, n = 3
Method: (§1) Cerebroventricular microinjections (CVMI) were executed as described in [7, 8]. Fish were anesthetized using MESAB (0.01%) and an incision placed above the optic tectum with a fine needle (Becton Dickinson Biosciences). Through this hole a glass capillary is inserted and the liquid disperses evenly throughout the cerebroventricular fluid upon high pressure injection.
(§2) Fish were sacrificed 1 day post injection and heads fixed over night at 4°C in 2% PFA. Thereafter heads were transferred to 20% Sucrose-EDTA in […] phosphate buffer, pH 7.5. For cryosectioning embedding in Sucrose(20%)-Gelatine (7.5%) on dry ice was done and heads stored at -80°C. 12 μm cryosections were cut using a cryostat microtome and stored at -20°C.
TUNEL stainings of sections were carried out using the ApoTag Red In Situ apoptosis Detection Kit (Chemicon International). Stainings were performed according to manufacturer’s instructions and positive and negative controls were included.
(§3) Images were acquired using an inverted Zeiss AxioImager Z1. Only sections between the caudal end of the olfactory bulb and anterior commissure were counted. The quantification of the average translocation range was done using the AxioVision free hand surface area measurement tool. The area showing anti-fluorescein staining in the left hemisphere was measured against the total this telencephalic hemisphere, based on color thresholds against control images. The statistical evaluation was performed using GraphPad Prism (Version 6.02) for one-way ANOVA followed by a Tukey’s post-hoc test and for Student’s T-Test. Error bars shown are the s.e.m. and asterisks indicate significance according to: *: p0.05, **: p0.01, ***: p0.001. p>0.05 is considered not significant.

[2] = tested on: adult zebrafish brain (telencephalic hemisphere); assay: Peptide translocation area in the telencephalon after CVMI (fluorescein IHC); details: 5(6)-carboxyfluorescein-labelled peptide, fluorescein IHC at 1 dpi, n = 3, mean ± s.e.m.
Method: as §1, §2
(§4) Stainings were performed as previously described in [36, 43]. Yet after the first washing step a 6 min citrate buffer treatment at 85°C was done. Primary antibodies were sheep anti-fluorescein AP (1:4000, Roche), mouse anti-PCNA (1:500, Dako Cyto) and rabbit anti L-Plastin (Lcp1, 1:7500, a kind gift from Michael Redd, University of Utah, Salt Lake City, UT, USA), they were diluted in PBS. They were incubated at 4°C overnight and secondary antibodies for 30 min at room temperature. Secondary antibodies were Alexa anti-rabbit and anti-mouse 488, 555 (1:500, Molecular probes). FastRed stainings were carried out using Fast Red TR/Naphtol AS-MX tablets (Sigma), according to manufacturer's instructions. Lastly sections were washed using PBSTx and mounted. All immunohistochemical stainings were done on at least five individuals.
as §3

[3] = tested on: adult zebrafish brain (telencephalon); assay: L-Plastin immunohistochemistry for immune response (leukocytes/microglia) after peptide CVMI; details: for number of L-Plastin-positive cells per hemisphere per section: dose not printed in the block (heading: high doses), PBS-injected control 35 ±6, n = 3, mean ± s.e.m.
Method: as §1, §2, §4, §3

[4] = tested on: adult zebrafish brain (telencephalic hemispheres); assay: Relative fluorescence levels in the telencephalic hemispheres after CVMI (surface plots); details: CVMI 100 μM; for relative fluorescence levels in the telencephalic hemispheres (level of peptide translocated to deep tissues): Fast-Red staining of cryosections, compared to control PolyD
Method: as §1, §2, §4
(§5) Images were acquired using an inverted Zeiss AxioImager Z1. Only sections between the caudal end of the olfactory bulb and anterior commissure were counted. The quantification of the average translocation range was done using the AxioVision free hand surface area measurement tool. The area showing anti-fluorescein staining in the left hemisphere was measured against the total this telencephalic hemisphere, based on color thresholds against control images. […]

[5] = tested on: adult zebrafish brain (ventricular progenitor cells); details: CVMI 200 μM, PCNA IHC, n = 3, mean ± s.e.m.
Method: as §1, §2
Stainings were performed as previously described in [36, 43]. Yet after the first washing step a 6 min citrate buffer treatment at 85°C was done. […]
as §5

[6] = CVMI at 100 μM, 150 μM and 200 μM (all doses tested), n = 4
[7] = injection concentration 100 μM, stained area vs total hemisphere

Substance	number of TUNEL-positive (apoptotic) cells [1]	cell death response (TUNEL-positive cells) compared to PolyD control [1, 6]	maximum concentration usable without any cell death response ([1]; CVMI, doses tested 100, 150, 200 μM, TUNEL)	average area of peptide translocation in one telencephalic hemisphere [2, 7]	average area of peptide translocation in one telencephalic hemisphere ([2]; injection concentration 200 μM)	immune response (L-Plastin-positive cells) compared to PolyD control [3, 6]	number of L-Plastin-positive cells per hemisphere per section ([3]; CVMI)	maximum concentration usable without activating the immune system ([3]; CVMI, doses tested 100, 150, 200 μM, L-Plastin IHC)	relative fluorescence levels in the telencephalic hemispheres (level of peptide translocated to deep tissues) [4]	effectiveness of penetration relative to Trans (relative fluorescence) ([4]; PolyR versus Trans)	ventricularly proliferating progenitor cells (PCNA+ cells per telencephalic hemisphere section) [5]
RRRRRRRRR [PolyR, Poly-Arginine]	unchanged levels of TUNEL-positive cells	did not elicit any cell death response	not toxic at such concentrations	70 ± 4%	70 ± 5%	did not elicit any immune response	do not alter the number of leukocytes/microglia	not causing an immune reaction at tested concentrations	significantly elevated levels of penetration	3 fold	not altered
DDDDDDDDD ({5(6)‑carboxyfluorescein}-DDDDDDDDD) [PolyD, Poly-Aspartic Acid]	did not result in any increase in the number of apoptotic cells	–	–	did not show any penetration	–	–	do not alter the number of leukocytes/microglia	–	no translocation	–	–
RKKRRQRRR [Tat]	–	–	–	27 ±13%	63 ± 11%	–	–	–	–	–	–
RPARPAR ({5(6)‑carboxyfluorescein}-RPARPAR) [CendRP]	–	–	–	did not show any penetration	–	–	–	–	–	–	–

Reference: article PMC4403811, “Efficient Cargo Delivery into Adult Brain Tissue Using Short Cell-Penetrating Peptides” (PLoS ONE, 2015)
